According to doi:10.1101/2022.07.18.499583:

Biological target: NSP1 (SARS-CoV-2, UniProt P0DTD1 1-180)
Assay: BLI

AACCAACUUUCGAUCUCUUGUAGAUCUGUUCU (structured_RNA) [SL2 (unmodified)]
Kd: 300 ± 54 nM
